By Kd is commonly meant the concentration at which binding is half-saturated. Read a low Kd as a tighter complex.

This assay has as its target IAEDANS-labeled K75C mutant calmodulin (UniProt P0DP23). In words: other fluorescence titration; IAEDANS emission (excitation 340 nm, emission 475 nm) of about 1 nM I-CaM; LSEL15 titrated; 10 mM MOPS pH 7.4, 100 mM NaCl, 0.3 mM CaCl2, 0.1 mg/ml BSA.

On to “Peptide LSEL15 (L-selectin residues Ala311-Lys325)”, for which the Kd was 3.8 nM.

The record behind these values is PMC3642142.
